Reference: patent US20090232801A1

Tests used:
Aβ(1-42) fibrils (human) = assay: fibril pull-down: antibody incubated 20 h at 37 °C with Aβ(1-42) fibrils, centrifuged; SDS-PAGE densitometry of the heavy chain in pellet and supernatant
[1] = biological target: Aβ(1-42) globulomer (human); assay: dot blot densitometry; reference: Aβ(1-40) monomer
[2] = biological target: Aβ(1-42) globulomer (human); assay: dot blot densitometry; reference: Aβ(1-42) monomer
Aβ(1-40) monomer (human) = assay: dot blot, 10 pmol antigen on nitrocellulose, 0.2 µg/ml antibody, densitometry
[3] = biological target: Aβ(1-42) globulomer (human); assay: as above
[4] = biological target: Aβ(1-42) monomer, HFIP pretreated (human); assay: as above
Sequence of Aβ(1-42) monomer, HFIP pretreated (human) (peptide, as listed by the source): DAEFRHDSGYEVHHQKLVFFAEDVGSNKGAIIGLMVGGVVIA

Sequence of Aβ(1-40) monomer (human) (peptide, as listed by the source): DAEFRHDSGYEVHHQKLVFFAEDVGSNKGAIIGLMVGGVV

| Fibril bound Ab fraction (Aβ(1-42) fibrils (human)) [%] | Ratio RD Aβ(1-42) globulomer/RD Aβ(1-40) monomer [1] | Ratio RD Aβ(1-42) globulomer/RD Aβ(1-42) monomer [2] | Reflective Density (RD) [10 pmol] (Aβ(1-40) monomer (human)) [RD] | Reflective Density (RD) [10 pmol] [3] [RD] | Reflective Density (RD) [10 pmol] [4] [RD] | Substance |
| --- | --- | --- | --- | --- | --- | --- |
| 91 | – | – | – | – | – | mMAb 6E10 (Signet Inc. Cat.#9320) (antibody) |
| 9 | – | – | – | – | – | unspecific antibody IgG2a |
| – | 10 | 0.42 | 0.15 | 1.5 | 3.5 | mouse monoclonal antibody 4G8 |
